Results from patent US9631002B2, “Methods and compositions for producing active vitamin K-dependent proteins” (The University of North Carolina at Chapel Hill, priority 2010, dated 2017).

B1: hVKOR M. tuberculosis: human VKOR with residues 122-139 replaced by M. tuberculosis VKOR 129-146, SEQ ID NO:29 (protein)
chain: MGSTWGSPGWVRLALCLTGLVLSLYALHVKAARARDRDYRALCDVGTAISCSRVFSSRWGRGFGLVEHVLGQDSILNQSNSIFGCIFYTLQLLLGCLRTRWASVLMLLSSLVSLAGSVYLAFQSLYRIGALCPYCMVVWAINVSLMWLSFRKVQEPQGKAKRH
modifications: Human VKOR with amino acids 122-139 substituted with amino acids 129-146 of M. tuberculosis VKOR (RefSeq accession no. NP_217484)
B2: MT-VKORH: Mycobacterium tuberculosis VKOR homologue, NP_217484, SEQ ID NO:18 (protein, listed as Mycobacterium tuberculosis)
chain: MVAARPAERSGDPAAVRVPVPSAWWVLIGGVIGLFASMTLTVEKVRILLDPIYVPSCNVNPIVSCGSVMTTPQASLLGFPNPLLGIAGFTVVVVTGVLAVAKVPLPRWYWIGLAVGILVGVAFVHWLIFQSLYRIGALCPYCMVVWAVIATLLVVVASIVFGPMRENRGSQERVGARLLYQWRWSLATLWFTTVFLLIMVRFWDYSTLI

Legend:
[1] = tested on: carboxylation of FIXgla-PC reporter protein in AV12 cells (reduction of vitamin K to KH2); assay: Cell-based VKOR activity assay in FIXgla-PC/AV12 or FIXgla-PC/VKOR-Y139F/AV12 cells, carboxylated reporter by ELISA; parameters: species or system Syrian golden hamster
[2] = tested on: carboxylation of FIXgla-PC reporter protein in HEK293 cells (reduction of KO to vitamin K); assay: Cell-based VKOR activity assay: recombinant VKOR/VKORH expressed in FIXgla-PC/HEK293 cells with KO and warfarin, carboxylated reporter by ELISA; parameters: species or system human

Molecule	ability of human VKOR with replaced residues 122-139 to use vitamin K to carboxylate the reporter ([1]; 11 μM K, 2 μM warfarin, 48 h, FIXgla-PC AV-12 (FIG. 11B))	ability of human VKOR with replaced residues 122-139 to use KO to carboxylate the reporter ([2]; 5 μM KO, 2 μM warfarin, 48 h, HEK293 (FIG. 11C))	support of reporter protein carboxylation ([1]; transient expression in FIXgla-PC/AV12 not stably expressing VKOR-Y139F, KO and warfarin (FIG. 19B))	activity in reducing vitamin K to KH2 to support carboxylation ([1]; transient expression in FIXgla-PC/VKOR-Y139F/AV12, KO and warfarin (FIG. 19A))	activity relative to human VKOR-Y139F ([2]; 5 μM KO, 4 μM warfarin, 48 h, luciferase-normalized (FIG. 15B)) [fold]	Relative activity: Human Y139F ([2]; VKOR of the organism compared to human Y139F VKOR, cell-based carboxylation)	activity relative to human VKOR (Y139F) ([2]; both human forms carry Y139F, 5 μM KO, 2 μM warfarin) [fold]
B1	can utilize vitamin K to produce carboxylated reporter protein	functions as a VKOR					
B2			produced significant carboxylated reporter protein	significant activity	2.5	Yes, greater	2
